The results in this text go back to patent US20200385459A1 (University of Texas, published 2020).

Several values for one entry are separate records, joined by “and”; a condition that tells them apart may be missing. Equal values may be shown once.

The target of test [1] is T1, His-tagged recombinant human LRP10 protein, LRP10-516H (human) (UniProt Q7Z4F1).
T1 sequence (looked up): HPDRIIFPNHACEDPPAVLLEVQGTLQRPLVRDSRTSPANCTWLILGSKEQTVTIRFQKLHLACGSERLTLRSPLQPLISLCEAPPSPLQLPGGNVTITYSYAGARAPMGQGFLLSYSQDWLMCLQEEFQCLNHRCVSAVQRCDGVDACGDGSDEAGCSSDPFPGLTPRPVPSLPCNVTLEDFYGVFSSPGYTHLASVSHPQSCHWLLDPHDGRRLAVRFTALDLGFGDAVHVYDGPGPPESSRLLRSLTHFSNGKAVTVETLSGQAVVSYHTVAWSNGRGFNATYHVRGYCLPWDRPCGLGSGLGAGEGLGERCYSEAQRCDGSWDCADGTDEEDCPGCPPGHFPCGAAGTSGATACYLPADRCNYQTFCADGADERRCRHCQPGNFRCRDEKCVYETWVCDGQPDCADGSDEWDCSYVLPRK
Kind of test: ELISA, coated LRP10, antibody at 3.91 ng/ml.

In test [2] the target is T1, His-tagged recombinant human LRP10 protein, LRP10-516H (human). Kind of test: ELISA, coated LRP10, antibody at 0.24 ng/ml.
For test [3] the target is unchanged. The test can be described thus: ELISA, coated LRP10, antibody at 250 ng/ml.
For test [4] the target is unchanged. The test can be described thus: ELISA, coated LRP10, antibody at 62.5 ng/ml.
The target is the same in test [5]. The test can be described thus: ELISA, coated LRP10, antibody at 0 ng/ml (background well).
The target is the same in test [6]. Kind of test: ELISA, coated LRP10, antibody at 0.98 ng/ml.
For test [7] the target is unchanged. Kind of test: ELISA, coated LRP10, antibody at 1000 ng/ml.
Test [8] shares this target. Kind of test: ELISA, coated LRP10, antibody at 15.63 ng/ml.
Test [9] addresses T2, His-tagged recombinant human LRP10 protein, LRP10-516H (human, UniProt Q7Z4F1 17-440).
T2 construct: The ELISA protocol calls the coated protein 'LR10'; also called target protein LR10; target antigen; not shown: His tag
T2 sequence (looked up): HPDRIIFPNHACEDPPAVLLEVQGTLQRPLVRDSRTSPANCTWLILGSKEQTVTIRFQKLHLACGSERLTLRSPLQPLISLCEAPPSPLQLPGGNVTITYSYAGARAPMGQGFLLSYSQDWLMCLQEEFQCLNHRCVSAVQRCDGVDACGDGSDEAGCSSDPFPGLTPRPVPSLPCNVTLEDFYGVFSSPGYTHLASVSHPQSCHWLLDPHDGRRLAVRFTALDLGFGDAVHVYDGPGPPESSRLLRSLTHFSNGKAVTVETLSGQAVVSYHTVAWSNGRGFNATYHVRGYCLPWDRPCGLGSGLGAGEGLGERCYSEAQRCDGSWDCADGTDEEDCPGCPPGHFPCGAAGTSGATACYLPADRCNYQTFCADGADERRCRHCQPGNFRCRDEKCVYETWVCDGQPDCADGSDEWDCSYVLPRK
The test can be described thus: ELISA, coated LRP10, serial dilution of antibody. How it is done:
1) Coat the target protein LR10 (1 μg/ml, 0.1 μg/well) in a certain coating buffer (0.1 M NaHCO₃, pH 9.6). Incubate overnight at 4° C. [0234] 2) Wash the wells 3 times with 300 μL washing buffer (0.1% PBST) per well. [0235] 3) Block the wells with 300 μL blocking buffer (3% BSA) for 1 h at 37° C. [0236] 4) Discard the blocking buffer and wash the plate 3 times with the washing buffer, slapping the plate face-down onto a clean section of paper towel each time. [0237] 5) Add 100 μL of a serial dilution of antibodies per well. Incubate at 37° C. for 1 h. [0238] 6) Wash 3 times with the washing buffer. Dilute HRP-goat anti-human IgG (1:4,000) in the blocking buffer (3% BSA). Add 100 μL of diluted conjugate per well and incubate at 37° C. for 1 h. […] 7) Wash 3 times with the washing buffer. Dissolve Tetramethylbenzidine (TMB) substrate (Sigma, USA) in […] citrate-phosphate buffer and add 1 μL/mL H₂O₂ to the solution. Add 100 μL of substrate solution per well and incubate at room temperature for 15 minutes. [0240] 8) Add 100 μL of 2 mol/L H₂SO₄ solution to stop the reaction. [0241] 9) Read plates using a microplate reader set at 490 nm.
For the 8 well-expressed antibodies, we tested their binding activities to the target antigen by ELISA (Table 7 and FIG. 11).

In test [10] the target is T3, mouse LRP10 (Lrp10) on C57BL/6 T cells (mouse (Mus musculus), UniProt Q7TQH7 18-713).
T3 sequence (looked up): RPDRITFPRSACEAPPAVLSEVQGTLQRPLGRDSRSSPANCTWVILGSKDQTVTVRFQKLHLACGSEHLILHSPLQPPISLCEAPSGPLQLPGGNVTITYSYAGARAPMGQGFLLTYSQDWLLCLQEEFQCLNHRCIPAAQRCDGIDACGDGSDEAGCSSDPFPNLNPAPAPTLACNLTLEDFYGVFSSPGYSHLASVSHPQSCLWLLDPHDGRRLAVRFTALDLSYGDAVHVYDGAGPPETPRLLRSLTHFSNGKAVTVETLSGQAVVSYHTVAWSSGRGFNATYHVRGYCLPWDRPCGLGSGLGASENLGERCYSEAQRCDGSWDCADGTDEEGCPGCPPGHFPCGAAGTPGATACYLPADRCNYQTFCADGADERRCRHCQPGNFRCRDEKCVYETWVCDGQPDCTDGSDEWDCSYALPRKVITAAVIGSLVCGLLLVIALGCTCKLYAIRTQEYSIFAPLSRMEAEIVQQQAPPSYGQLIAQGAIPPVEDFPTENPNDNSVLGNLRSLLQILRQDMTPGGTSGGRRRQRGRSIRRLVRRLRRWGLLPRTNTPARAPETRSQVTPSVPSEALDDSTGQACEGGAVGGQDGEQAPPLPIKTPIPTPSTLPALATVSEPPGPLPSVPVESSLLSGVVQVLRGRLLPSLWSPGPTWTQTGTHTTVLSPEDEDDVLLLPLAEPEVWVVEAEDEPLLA
The test can be described thus: cell-based or functional assay.

For test [11], the target named is T2, His-tagged recombinant human LRP10 …. The test can be described thus: ELISA on coated LRP10.

B1: Clone 6 (AB6) (antibody, human IgG1, V domains shown)
VH: EVQLLESGGGLVQPGGSLRLSCAASGFTFSSYAMSWVRQAPGKGLEWVSSIPSRGQATKYADSVKGRFTISRDNSKNTLYLQMNSLRAEDTAVYYCAKSRHTFDYWGQGTLVTVSS
VL: DIQMTQSPSSLSASVGDRVTITCRASQSISSYLNWYQQKPGKAPKLLIYDASLLQSGVPSRFSGSGSGTDFTLTISSLQPEDFATYYCQQTSAGPGTFGQGTKVEIK
Regarding B1, the ELISA signal (plate read at 490 nm) in [1] is 0.0615 and 0.0582; in test [2], 0.0606 and 0.0573; in test [3], 0.128 and 0.133; in test [4] it was 0.09 and 0.0989; in [5], 0.0595 and 0.0594; in test [6] it was 0.0588 and 0.0556. In addition, the ELISA signal (plate read at 490 nm) in [7] is 0.289 and 0.349; in [8], 0.0656 and 0.0659.

B2: Clone 3 (AB3) (antibody, human IgG1, V domains shown)
VH: EVQLLESGGGLVQPGGSLRLSCAASGFTFSSYAMSWVRQAPGKGLEWVSQIGTMGRPTTYADSVKGRFTISRDNSKNTLYLQMNSLRAEDTAVYYCAKSGKKFDYWGQGTLVTVSS
VL: DIQMTQSPSSLSASVGDRVTITCRASQSISSYLNWYQQKPGKAPKLLIYRASRLQSGVPSRFSGSGSGTDFTLTISSLQPEDFATYYCQQPTSLPLTFGQGTKVEIK
notes: Expressed as a full antibody in 293F cells, protein A purified; also called AB3 (L3 + H2); AB3: L3 + H2
On to B2, for which the EC50 in [9] came out at 0.0349 µg/mL.

B3: Clone 1 (AB1) (antibody, V domains shown)
VH: EVQLLESGGGLVQPGGSLRLSCAASGFTFSSQAMSWVRQAPGKGLEWVSSIPPGGPNTKYADSVKGRFTISRDNSKNTLYLQMNSLRAEDTAVYYCAKSYPSFDYWGQGTLVTVSS
VL: DIQMTQSPSSLSASVGDRVTITCRASQSISSYLNWYQQKPGKAPKLLIYNASDLQSGVPSRFSGSGSGTDFTLTISSLQPEDFATYYCQQSSRTPTTFGQGTKVEIK
notes: also called AB1 (L1 + H1); AB1: L1 + H1
Regarding B3, the EC50 in test [9] came out at 0.013 µg/mL.

B4: Clone 7 (AB7) (antibody, human IgG1, V domains shown)
VH: EVQLLESGGGLVQPGGSLRLSCAASGFTFSSYAMSWVRQAPGKGLEWVSSIATTGNTTYYADSVKGRFTISRDNSKNTLYLQMNSLRAEDTAVYYCAKNTATFDYWGQGTLVTVSS
VL: DIQMTQSPSSLSASVGDRVTITCRASQSISSYLNWYQQKPGKAPKLLIYAASTLQSGVPSRFSGSGSGTDFTLTISSLQPEDFATYYCQQNDYYPTTFGQGTKVEIK
notes: Expressed as a full antibody in 293F cells, protein A purified; also called AB7 (L7 + H6); AB7: L7 + H6
As for B4, the EC50 in test [9] stood at 0.0357 µg/mL. Further, in test [10], the “migration rate of T cells in response to SDF-1, transwell” value (shortened to “migration rate of T cells in response”) was around 2 fold higher than vehicle.

B5: Clone 9 (AB9) (antibody, human IgG1, V domains shown)
VH: EVQLLESGGGLVQPGGSLRLSCAASGFTFSSYAMSWVRQAPGKGLEWVSSIYTSGAATTYADSVKGRFTISRDNSKNTLYLQMNSLRAEDTAVYYCAKSYPSFDYWGQGTLVTVSS
VL: DIQMTQSPSSLSASVGDRVTITCRASQSISSYLNWYQQKPGKAPKLLIYNASDLQSGVPSRFSGSGSGTDFTLTISSLQPEDFATYYCQQSSRTPTTFGQGTKVEIK
notes: Expressed as a full antibody in 293F cells, protein A purified; also called AB9 (L1 + H8); AB9: L1 + H8
As for B5, the binding result in [11] is “no binding”.

B6: Clone 8 (AB8) (antibody, human IgG1, V domains shown)
VH: EVQLLESGGGLVQLGGSLRLSCAASGFTFSSQAMSWVRQAPGKGLEWVSSIPPGGPNTKYADSVKGRFTISRDNSKNTLYLQMNSLRAEDTAVYYCAKSYPSFDYWGQGTLVTVSS
VL: DIQMTQSPSSLSASVGDRVTITCRASQSISSYLNWYQQKPGKAPKLLIYNASDLQSGVPSRFSGSGSGTDFTLTISSLQPEDFATYYCQQSSRTPTTFGQGTKVEIK
notes: Expressed as a full antibody in 293F cells, protein A purified; also called AB8 (L1 + H7); AB (L1 + H7)
As to B6, in test [9], the 50% effective concentration (EC50) amounted to 0.0117 µg/mL. Moreover, the “migration rate of T cells in response” value in test [10] is around 2 fold higher than vehicle.

B7: Clone 2 (AB2) (antibody, human IgG1, V domains shown)
VH: EVQLLESGGGLVQPGGSLRLSCAASGFTFSSQAMSWVRQAPGKGLEWVSSIPPGGPNTKYADSVKGRFTISRDNSKNTLYLQMNSLRAEDTAVYYCAKSYPSFDYWGQGTLVTVSS
VL: DIQMTQSPSSLSASVGDRVTITCRASQSISSYLNWYQQKPGKAPKLLIYAASPLQSGVPSRFSGSGSGTDFTLTISSLQPEDFATYYCQQVARTPNTFGQGTKVEIK
notes: Expressed as a full antibody in 293F cells, protein A purified; also called AB2 (L2 + H1); AB2: L2 + H1
Turning to B7, the EC50 in test [9] is 0.0148 µg/mL. For the same molecule, the “migration rate of T cells in response” value in test [10] was around 2 fold higher than vehicle.
